Experimental data taken from publication PMC7335206.
pKd: −log10 of the molar value.

Tests used:
[1] = target: N-terminal transactivation domain (TAD) of the tumor suppressor protein p53, labeled with Alexa 488 and Alexa 594, biotinylated; experiment: FRET or BRET; single-molecule three-color FRET, CW donor excitation; biotinylated TAD immobilized on PEG-coated glass via NeutrAvidin, 25 nM NCBD in solution; 10 mM Tris pH 7, 0 mM NaCl, 23 °C; maximum likelihood analysis of photon trajectories, 8-state model with acceptor blinking
[2] = target: N-terminal transactivation domain (TAD) of the tumor suppressor protein p53, labeled with Alexa 488 and Alexa 594, biotinylated; experiment: FRET or BRET; single-molecule three-color FRET, CW donor excitation; biotinylated TAD immobilized on PEG-coated glass via NeutrAvidin, 100 nM NCBD in solution; 10 mM Tris pH 7, 10 mM NaCl, 23 °C; maximum likelihood analysis of photon trajectories, 8-state model with acceptor blinking
[3] = target: N-terminal transactivation domain (TAD) of the tumor suppressor protein p53, labeled with Alexa 488 and Alexa 594, biotinylated; experiment: FRET or BRET; single-molecule three-color FRET, CW donor excitation; biotinylated TAD immobilized on PEG-coated glass via NeutrAvidin, 200 nM NCBD in solution; 10 mM Tris pH 7, 30 mM NaCl, 23 °C; maximum likelihood analysis of photon trajectories, 8-state model with acceptor blinking

pKd [1]: 6.91 | kon [1]: 2.04e+09 M⁻¹ s⁻¹ | pKd [2]: 6.28 | kon [2]: 9.1e+08 M⁻¹ s⁻¹ | pKd [3]: 5.61 | kon [3]: 5.2e+08 M⁻¹ s⁻¹
Substance: nuclear coactivator binding domain (NCBD) of the CREB binding protein (CBP), S2066C, labeled with CF680R (domain or fragment)
